Target: hexa-His-β6 bundlin (soluble, recombinant WT β6 bundlin) (enteropathogenic Escherichia coli (EPEC) strain RN587/1)
Assay: native MS

hexa-His-β6 bundlin (soluble, recombinant WT β6 bundlin) (natural protein)
stoichiometry N: 2

From PMC2719252
